Non-standard residues stand in square brackets, D forms with d. Residues, ends and D or L forms follow the SMILES beside them. *: point of attachment. Dnp = O=[N+]([O-])c1ccc(*)c([N+](=O)[O-])c1; Mca = COc1ccc2c(CC(=O)*)cc(=O)oc2c1

4 molecules from patent US9265844B2, “Protease degradable polypeptides and uses thereof” (THE METHODIST HOSPITAL SYSTEM, priority 2010, dated 2016) can be followed below.

What all share (assay type): biochemical
The target of one series is T1, Cath S (Homo sapiens, UniProt P25774).
T1 construct: purchased Calbiochem, EMD Bioscience (Gibbstown, N.J.)
T1 sequence (P25774 115-331): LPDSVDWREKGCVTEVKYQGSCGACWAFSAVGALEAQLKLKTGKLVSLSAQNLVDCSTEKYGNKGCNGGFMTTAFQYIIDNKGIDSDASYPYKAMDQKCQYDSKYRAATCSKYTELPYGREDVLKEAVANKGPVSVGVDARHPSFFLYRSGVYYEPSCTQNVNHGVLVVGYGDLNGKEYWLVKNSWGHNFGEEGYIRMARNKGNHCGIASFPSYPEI
Nature of the series: FRET hydrolysis of substrate e by Cath S. The note with it: 90 minutes, pH 6.5. Here is the method:
(§1) The catalytic selectivity of Cath E and Cath D was determined fluorometrically by FRET-based hydrolysis of intramolecularly quenched peptide substrates a-e. Fluorogenic substrates a-e (10 μL, 200 μM) were incubated with 23 pmol of Cath E or Cath D in 50 mM sodium acetate buffer, pH 4, containing 150 mM NaCl, and the total volume was brought to 100 μL, using the same buffer. Cath S and Cath B were pre-activated by incubation with 100 mM sodium acetate buffer solution, pH 6.5, containing 5 mM DTT and 5 mM EDTA for 5 minutes. Cath S and Cath B (23 pmol) were incubated with 10 μL, of 200 μM fluorogenic substrate e at 100 mM sodium acetate buffer solution, pH6.5, containing 5 mM DTT and 5 mM EDTA, and the total volume was brought to 100 μL, using the same buffer. All assays were performed in triplicate in 96 well black walls, clear-bottom plates (Corning, N.Y.). The change in the fluorescence intensity was monitored over time using SpectraMax.M2^e fluorescence spectrophotometer (Molecular Devices; Sunnyvale, Calif.) at excitation wavelength (λex) of 340 nm and emission wavelength (λem) of 405 nm at 37° C. Control experiments were performed simultaneously by replacing the enzyme with assay buffer.

Another series has as its target T2, Cath B (Homo sapiens, UniProt P07858).
T2 construct: purchased Calbiochem, EMD Bioscience (Gibbstown, N.J.)
Description: FRET hydrolysis of substrate e by Cath B. To be noted: 90 minutes, pH 6.5. The procedure:
as §1

The target in series [1] is T3, Cath E (Homo sapiens, UniProt P14091).
T3 sequence (P14091 54-396): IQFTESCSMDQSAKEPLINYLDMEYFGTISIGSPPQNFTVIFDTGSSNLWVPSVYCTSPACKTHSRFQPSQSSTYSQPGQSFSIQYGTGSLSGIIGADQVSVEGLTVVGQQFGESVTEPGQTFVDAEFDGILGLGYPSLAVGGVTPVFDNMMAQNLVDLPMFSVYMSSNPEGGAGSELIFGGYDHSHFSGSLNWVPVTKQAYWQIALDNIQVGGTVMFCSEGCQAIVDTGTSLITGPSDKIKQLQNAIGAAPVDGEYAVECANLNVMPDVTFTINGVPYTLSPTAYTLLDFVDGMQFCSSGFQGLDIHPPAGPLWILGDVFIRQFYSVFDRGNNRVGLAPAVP
Description: Enzyme digestion, fragments by RP-HPLC and ESI-MS (Cath E). Details: purchased Calbiochem, EMD Bioscience (Gibbstown, N.J.). To be noted: excess Cath E, 37° C., 3 hours. Here is the method:
Substrate e was subjected to aspartic peptidase digestion using Cath E and Cath D. Fluorogenic substrate e (10 μL, 100 μM) was incubated at 37° C. for 3 hours with excess Cath E or Cath D (˜119 pmol) in 100 μL, of 50 mM sodium acetate buffer (pH 4) containing 150 mM NaCl. The resulting digestion fragments were analyzed by the aforementioned analytical RP-HPLC and ESI-MS.

Series [2] concerns the target T3, Cath E. Description: FRET hydrolysis of quenched substrates a-e by Cath E. To be noted: for time to saturation of fluorescence on activation by Cath E: 23 pmol Cath E. More on the design: purchased Calbiochem, EMD Bioscience (Gibbstown, N.J.). Here is the method: as §1
For series [3], the target named is T4, Cath D (Homo sapiens, UniProt P07339). Nature of the series: Enzyme digestion, fragments by RP-HPLC and ESI-MS (Cath D). To be noted: high dose of Cath D, overnight hydrolysis. The procedure: Substrate e was subjected to aspartic peptidase digestion using Cath E and Cath D. […] The resulting digestion fragments were analyzed by the aforementioned analytical RP-HPLC and ESI-MS.
T4 sequence (P07339 65-412): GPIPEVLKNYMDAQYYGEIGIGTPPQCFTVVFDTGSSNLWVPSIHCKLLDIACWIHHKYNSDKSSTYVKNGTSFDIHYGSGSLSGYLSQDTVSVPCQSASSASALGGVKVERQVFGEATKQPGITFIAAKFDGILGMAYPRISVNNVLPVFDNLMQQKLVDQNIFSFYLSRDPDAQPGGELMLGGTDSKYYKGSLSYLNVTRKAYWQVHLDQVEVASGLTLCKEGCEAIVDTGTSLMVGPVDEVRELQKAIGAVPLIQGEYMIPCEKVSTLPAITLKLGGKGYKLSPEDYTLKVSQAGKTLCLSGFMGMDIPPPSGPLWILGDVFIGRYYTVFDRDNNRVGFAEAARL

Series [4] has as its target T3, Cath E. Description: Reported specificity constants of Cath E for various substrates. Details: purchased Calbiochem, EMD Bioscience (Gibbstown, N.J.). To be noted: sequence 3 vs sequence 2. From the text: Table 4 compiles the reported specificity constant (Kcat/Km) of Cath E and Cath D using various substrates including peptide substrate e. […] The specificity constant of Cath E for substrate e represents one of the highest reported Kcat/Km values.

The target of series [5] is T4, Cath D. Nature of the series: FRET hydrolysis of quenched substrates a-e by Cath D. To be noted: compared among substrates a-e. The procedure: as §1
Substrate in series [6]: COc1ccc2c(CC(=O)N[C@@H](C)C(=O)NCC(=O)N[C@@H](Cc3ccccc3)C(=O)N[C@@H](CO)C(=O)N[C@@H](CC(C)C)C(=O)N3CCC[C@H]3C(=O)N[C@@H](C)C(=O)N[C@@H](CCCCNc3ccc([N+](=O)[O-])cc3[N+](=O)[O-])C(=O)N[C@H](CCCNC(=N)N)C(N)=O)cc(=O)oc2c1
Nature of the series: Kinetic parameters of substrate e hydrolysis by Cath E. To be noted: other: Cath E 6.8 nM, pH 4.0, 10 minutes, 37° C., Woolf transformation. The procedure: The initial rates of substrate e hydrolysis by Cath E were monitored using a fluorescence plate-reader. Hydrolysis of different substrate e concentrations, 10, 20, 40 and 60 μM, was performed at pH 4 in 50 mM sodium acetate buffer containing 150 mM NaCl. Cath E with various concentrations, 2.27, 4.55, 6.82 nM, were incubated with substrate e and the changes in the fluorescence intensities were monitored for 10 minutes. The substrate e hydrolysis was determined by integrating the fluorescence intensity, and plotted by the amount of the hydrolyzed substrate e over time.
The initial velocities of the hydrolysis reactions were measured between 0 and 10 minutes using several concentrations of substrate e including: 5, 10, 20, 40, 60, 80, 100 μM. All of the used substrate e concentrations were much higher than the concentrations of enzyme (2.3, 4.5 and 6.8 nM). To measure the initial rates of the substrate e proteolysis and to determine Michaelis-Menten kinetic parameters Vmax and Km of the Cath E and Cath D, the Michaelis-Menten equation was transformed using the Woolf kinetic transformation [S/v=(S/Vmax)+(Km/Vmax)]. The initial velocity was calculated from the slope during the linear phase of the reaction and S/Vplotted versus substrate e concentration. The graph representation gave straight lines and Vmax and Km were calculated by the linear regression of the line to obtain the slope and intercept. The turnover number of Cath E enzyme (Kcat) was calculated using the equation Kcat=Vmax/[Cath E], where [Cath E] represents the Cath E concentration in μM and Vmax is the maximum velocity in μM S-1. All the reactions and measurements were carried out in 50 mM sodium acetate buffers (pH 4.0) using the aforementioned setting.

`COc1ccc2c(CC(=O)N[C@@H](C)C(=O)NCC(=O)N[C@@H](Cc3ccccc3)C(=O)N[C@@H](CO)C(=O)N[C@@H](CC(C)C)C(=O)N3CCC[C@H]3C(=O)N[C@@H](C)C(=O)N[C@@H](CCCCNc3ccc([N+](=O)[O-])cc3[N+](=O)[O-])C(=O)N[C@H](CCCNC(=N)N)C(N)=O)cc(=O)oc2c1` [Substrate e, Mca-Ala-Gly-Phe-Ser-Leu**Pro-Ala-Lys(Dnp)-DArg-CONH2] (Mca-AGFSLPAK(Dnp)[dR]-NH2): the “fluorescent signal increase relative to that observed with Cath E” value on Cath S and on Cath B was “less than 15%” throughout. For the same molecule, at Cath E [1], the cleavage site result was “exclusively between Leu^5 and Pro^6”. Further, the “time to saturation of fluorescence on activation by Cath E” value on Cath E [2] (200 μM substrate, pH 4.0) was no more than 10 min. Besides, the “net fluorescence signal ratio (Cath E/Cath D)” value at Cath E [2] (1 minute / initial time point, 200 μM substrate, 23 pmol enzyme, pH 4.0) was 265 fold. Moreover, on Cath D [3], the cleavage sites entry is listed as “two minor cleavage sites”.
Consider “Mca-Ala-Gly-Phe-Ser-Leu**Gly-Pro-Lys(Dnp)-DArg-CONH2 (Mca-AGFSLGPK(Dnp)[dR]-NH2; SMILES COc1ccc2c(CC(=O)N[C@@H](C)C(=O)NCC(=O)N[C@@H](Cc3ccccc3)C(=O)N[C@@H](CO)C(=O)N[C@@H](CC(C)C)C(=O)NCC(=O)N3CCC[C@H]3C(=O)N[C@@H](CCCCNc3ccc([N+](=O)[O-])cc3[N+](=O)[O-])C(=O)N[C@H](CCCNC(=N)N)C(N)=O)cc(=O)oc2c1) [Substrate d]”, for which the “time to saturation of fluorescence on activation by Cath E” value in the series with Cath E [2] (200 μM substrate, pH 4.0) is given as “did not reach saturation within the monitored period”.
As to “Mca-Gly-Ser-Pro-Ala-Phe**Leu-Ala-Lys(Dnp)-DArg-CONH2 (Mca-GSPAFLAK(Dnp)[dR]-NH2; SMILES COc1ccc2c(CC(=O)NCC(=O)N[C@@H](CO)C(=O)N3CCC[C@H]3C(=O)N[C@@H](C)C(=O)N[C@@H](Cc3ccccc3)C(=O)N[C@@H](CC(C)C)C(=O)N[C@@H](C)C(=O)N[C@@H](CCCCNc3ccc([N+](=O)[O-])cc3[N+](=O)[O-])C(=O)N[C@H](CCCNC(=N)N)C(N)=O)cc(=O)oc2c1) [Substrate a]”, in the series with Cath E [4], the “Kcat/Km for Cath E relative to sequence 2” value is reported as “around 16 fold”. In the series with Cath E [2] (compared among substrates a-e), the “fluorescence increase upon incubation with Cath E” value is “the fastest increase and the highest fluorescence signal among all investigated substrates”. In the series with Cath D [5], the “fluorescence increase / hydrolysis upon incubation with Cath D” value is given as “the highest among all investigated substrates”.

B1: Cath E (Homo sapiens) (protein)
chain: T3 sequence (P14091 54-396)
notes: purchased Calbiochem, EMD Bioscience (Gibbstown, N.J.)
Turning to B1, in series [6], the Km (as a rule, the substrate concentration at which the rate is half of its maximum) amounted to 19.37 µM; the Vmax is on record as 2.2 μM S^−1; the kcat is recorded as 322.5 S^−1; the kcat/Km turned out to be 16.7 μM^−1 S^−1.
